The DeepSol protein solubility set

experiment: soluble on expression in E. coli; label from the status in PepcDB or PDB records

| Sequence | soluble on expression in E. coli |
| --- | --- |
| MSLRVTLTDVARAAGVSKSTVSLVLNDSSLIKKETQQKVQQAIEQLGYVYNRFAANLRSQKSLTIGVVIDDLINPFFAEFTMGLEMTLAEHGFITVMSNTSQRSDRQKQVLDTLLEHHVAGIVLCPVNSTSEADLQRYANSSTPLLITMRPLDWQQLPVDYVGVDSHAGVREATEYLIQQGHRDIVFIGGLTHHMRYQGYLEAMNHHGLQPWSTDAFSLRAEPTQANGYQLMQQLLDMPSPPTAVICYNDLMAFGAESALGERGLFAGEDISLIGNDGVAACAYSNPPLTTIAVEPLALGKQAAQQILRRIAQPDAPLSHYIYRPTLQIRASTGKEGHHHHHH | soluble |
| GMFAGSIPMYIRVVSITAQSKLQFDMTVTYFENVWSPKVISLGAISAEFVQSNENSGMYIIHYPDKQTAISVFDKIKPEVDEVRTQNRIQITEGKRLFRVD | soluble |
| MGSDKIHHHHHHMKRRPTINDVAKLAGVSISTVSRYLKDPSQVSEKLGERIREAIKKLGYKPNKIAQGLRTGDSKMIGFIVPDITNPAFLTIVKGAEDFLRKKGYSFIIGGTDHKSKDEVVILESFIFHNVDGVIVTCTGYENKALKELIERYHLKLVFVDRRYPGIDAPYIGVDNFGGVARMVDYLVETGHRSFAYLCGDMTSTAKERLEGFLDRMKKYKIKDYQVLYGEFTFESGYKLTKRLSKIPDAIIAGNDLMAFGVIEALKERGLVVPEDVSVTGFDDMFFSKYYKPSLTTVRQDLYEMGKQAGKVLFALISGKKIRKKEYILPTEIVIRDSVKERRA | not soluble |
| EDKIMSYNAFFWMWVHDMLIDSIKWRDEHGRCINKDKGKTCIKGCNKKCICFQKWVEQKKTEWGKIKDHFRKQKDIPKDWTHDDFLQTLLMKDLLLEIIQDTYGDANEIKRIEALLEQAGVGGIDFAALAGLYTKGFVAEKDTTIDKLLQHEQKEADKCLKTHTDDTCPPQEDRSVARS | soluble |
| MFKVTFAFENGSEVEAFANAGDNLLEVARGANVAIDAPCSGNGACGKCRVQLKGGELDSKKTLHISDEEFEKGWRLACMSKICADVEVLVPDIASAYKSRMKVADLSSKEEIAIFEKAKNQVEETGIQLRNSLEVVELQMTEPTLDDTMPDVERLTRALRKFMNLKRIRVPYAVLRKLPDVLRASKFSVKCVVRVTPDDMFVYDIFDAKEDVIMGGLAVDIGTTTVSAVIINMATGEILAKSSSGNGQIRYGADVINRIIETTKPGGIKKLQDAVIKETINPMIHEMCRSIHLPENQIYRMCVASNTTMNHLFAGINADYLRTEPYIPAFFKTNSLFASDVGIEINGDAHIIMAPNIGSYVGGDITAGTLVSMIWNRPEFSLFIDLGTNGELVFGNSDFMMSCACSAGPAFEGGDISCGMRATDGAIEACTIDKETMEPTYKVVGEPGTKPVGLCGSGIIDVISELFMTGIINPKGKFVREGKRVRHDHYGMGSYVIAFEEEAGSVKDVEITEVDIDNFIRAKGAIFSAIRTMLSSLDFDVSMIDDVYVAGGIGSGINMQNAVNIGMFPDVPLEKFHYIGNSSLTGAYLMLLSTQAEKKTYELASNMTYMELSTVPTYMDEFVGACFIPHTDASMFPNVHQRLEHHHHHH | not soluble |
| MSLAELNFKAIEEKWQKRWLEAKIFEPNIRDKPKEKKFYITVAFPYLSGHLHVGHARTYTIPDVIARFKRMQGYNVLFPMAWHITGSPIVGIAERIKNRDPKTIWIYRDVYKVPEEILWTFEDPINIVKYFMKAAKETFIRAGFSVDWSREFYTTSLFPPFSKFIEWQFWKLKEKGYIVKGAHRVRWDPVVGTPLGDHDLMEGEDVPILDYIIIKFELRENGEVIYLPAATLRPETVYGVTNMWVNPNATYVKAKVRRKDKEETWIVSKEAAYKLSFQDREIEVIEEFKGEKLIGKYVRNPVSGDEVIILPAEFVDPDNATGVVMSVPAHAPFDHVALEDLKRETEILEKYDIDPRIVENITYISLIKLEGYGDFPAVEEVNKLGIKSQKDKEKLEQATKTIYKAEYHKGIFKVPPYEGKPVQEVKEAIAKEMLEKGIAEIMYEFAEKNVISRFGNRAVIKIIHDQWFIDYGNPEWKEKARKALERMKILPETRRAQFEAIIDWLDKKACARKIGLGTPLPWDPEWVIESLSDSTIYMAYYTISRHINKLRQEGKLDPEKLTPEFFDYIFLEEFSEDKEKELEKKTGIPAEIIHEMKEEFEYWYPLDWRCSGKDLIPNHLTFFIFNHVAIFREEHWPKGIAVNGFGTLEGQKMSKSKGNVLNFIDAIEENGADVVRLYIMSLAEHDSDFDWRRKEVGKLRKQIERFYELISQFAEYEVKGNVELKDIDRWMLHRLNKAIKETTNALEEFRTRTAVQWAFYSIMNDLRWYLRRTEGRDDEAKRYVLRTLADVWVRLMAPFTPHICEELWEKLGGEGFVSLAKWPEPVEEWWNETIEAEEEFIRSVMEDIKEIIEVAKIENAKRAYIYTAEDWKWKVAEVVSEKRDFKSSMEELMKDSEIRKHGKEVAKIVQKLIKERTFDVKRINEEKALREAKEFMEKELGIEIIINPTEDKGGKKKQAMPLKPAIFIEEGHHHHHH | not soluble |
| MWNMLIVAMCLALLGCLQAQELQGHVSIILLGATGDLAKKYLWQGLFQLYLDEAGRGHSFSFHGAALTAPKQGQELMAKALESLSCPKDMAPSHCAEHKDQFLQLSQYRQLKTAEDYQALNKDIEAQLQHAGLREAGRIFYFSVPPFAYEDIARNINSSCRPGPGAWLRVVLEKPFGHDHFSAQQLATELGTFFQEEEMYRVDHYLGKQAVAQILPFRDQNRKALDGLWNRHHVERVEIIMKETVDAEGRTSFYEEYGVIRDVLQNHLTEVLTLVAMELPHNVSSAEAVLRHKLQVFQALRGLQRGSAVVGQYQSYSEQVRRELQKPDSFHSLTPTFAGVLVHIDNLRWEGVPFILMSGKALDERVGYARILFKNQACCVQSEKHWAAAQSQCLPRQLVFHIGHGDLGSPAVLVSRNLFRPSLPSSWKEMEGPPGLRLFGSPLSDYYAYSPVRERDAHSVLLSHIFHGRKNFFITTENLLASWNFWTPLLESLAHKAPRLYPGGAENGRLLDFEFSSGRLFFSQQQPEQLVPGPGPAPMPSDFQVLRAKYRESPLVSAWSEELISKLANDIEATAVRAVRRFGQFHLALSGGSSPVALFQQLATAHYGFPWAHTHLWLVDERCVPLSDPESNFQGLQAHLLQHVRIPYYNIHPMPVHLQQRLCAEEDQGAQIYAREISALVANSSFDLVLLGMGADGHTASLFPQSPTGLDGEQLVVLTTSPSQPHRRMSLSLPLINRAKKVAVLVMGRMKREITTLVSRVGHEPKKWPISGVLPHSGQLVWYMDYDAFLG | soluble |
| MKDFKLAKSKSHAIEETKPFSILLMGVDTGSEHRKSKWSGNSDSMILVTINPKTNKTTMTSLERDVLIKLSGPKNNGQTGVEAKLNAAYASGGAEMALMTVQDLLDINVDYFMQINMQGLVDLVNAVGGITVTNKFDFPISIAANEPEYKAVVEPGTHKINGEQALVYSRMRYDDPEGDYGRQKRQREVIQKVLKKILALNSISSYKKILSAVSNNMQTNIEISSKTIPNLLAYKDSLEHIKSYQLKGEDATLSDGGSYQILTKKHLLAVQNRIKKELDKKRSKTLKTSAILYEDYYGLEHHHHHH | soluble |
| MSLVTIKDVALKAGVSPSTVSRVIKGNKRISEATISKVKKVMEELNYFPNTAARTLITNQTYKIGLVLKGSEEPIRLNPFYINVLLGISETCNQHGYGTQTTVSNNMNDLMDEVYKMIKQRMVDAFILLYSKENDPIKQMLIDESMPFIVIGKPTSDIDHQFTHIDNDNILASENLTRHVIEQGVDELIFITEKGNFEVSKDRIQGFETVASQFNLDYQIIETSNEREVILNYMQNLHTRLKDPNIKQAIISLDAMLHLAILSVLYELNIEIPKDVMTATFNDSYLTEIASPPQTCIDIKPRMLGQQAGSAILNILKNKAQDVIELVIIDTELKIRKSTQREGHHHHHH | soluble |
| MADEINEIREEQEQLAPFDPSKKKKKKKVVIQEPVEDLAESSQTEKSDSLPVNDGLESSFTGMKKKKKKPTESSLLNNESVDAGEDLDEIANDEQEGEEGIVLQQRYPWEGSERDYIYDELLGRVFNILRENNPELAGDRRRTVMRPPQVLREGTKKTVFVNFMDLCKTMHRQPDHVMQYLLAELGTSGSLDGQQRLVVKGRFAPKNFEGILRRYITDYVICLGCKSPDTILSKENRLFFLRCEKCGSQRSVAPIKTGFVARVSRRKT | soluble |
